We go through 5 variants from FireProtDB (doi:10.1021/bi020450z).

In general, Tm refers to the temperature at which the thermal transition is half complete.

First the molecules themselves.
B1: Adrenodoxin, mitochondrial, P00257 (parent)
chain: MAARLLRVASAALGDTAGRWRLLARPRAGAGGLRGSRGPGLGGGAVATRTLSVSGRAQSSSEDKITVHFINRDGETLTTKGKIGDSLLDVVVQNNLDIDGFGACEGTLACSTCHLIFEQHIFEKLEAITDEENDMLDLAYGLTDRSRLGCQICLTKAMDNMTVRVPDAVSDARESIDMGMNSSKIE

The variants in the data set derive from B1. The note with it: Bos taurus, reversible: YES, structure 1AYF, whole UniProt chain shown; for Tm / change of melting temperature, mutant - wild type (higher = more stable): pH 8.5, Thermal, CD, Glycine; for denaturant m value / denaturant midpoint (higher = more stable) / unfolding free energy: pH 7.5, 20 °C, GdnHCl, Fluorescence, Tris-HCl 50 mM.

Take MAARLLRVASAALGDTAGRWRLLARPRAGAGGLRGSRGPGLGGGAVATRTLSVSGRAQSSSEDKITVHWINRDGETLTTKGKIGDSLLDVVVQNNLDIDGFGACEGTLACSTCHLIFEQHIFEKLEAITDEENDMLDLAYGLTDRSRLGCQICLTKAMDNMTVRVPDAVSDARESIDMGMNSSKIE: the midpoint of thermal melting (Tm) stood at 46.6 °C and the “change of melting temperature, mutant - wild type (higher = more stable)” value (“change of melting temperature, mutant” below) was -5.3 °C.
For the variant MAARLLRVASAALGDTAGRWRLLARPRAGAGGLRGSRGPGLGGGAVATRTLSVSGRAQSSSEDKITVHFINRDGETLTTKGKIGDSLLDVVVQNNLDIDGFGACEGTLACSTCHLIWEQHIFEKLEAITDEENDMLDLAYGLTDRSRLGCQICLTKAMDNMTVRVPDAVSDARESIDMGMNSSKIE, the denaturant m value came out at 2.09 kcal/mol/M, the “denaturant midpoint (higher = more stable)” value (shortened to “denaturant midpoint”) worked out at 1.01 M, the unfolding free energy stood at 2.12 kcal/mol and the Tm was 37.3 °C. Also, the “change of melting temperature, mutant” value is -14.6 °C.
For the variant MAARLLRVASAALGDTAGRWRLLARPRAGAGGLRGSRGPGLGGGAVATRTLSVSGRAQSSSEDKITVHFINRDGETLTTKGKIGDSLLDVVVQNNLDIDGWGACEGTLACSTCHLIFEQHIFEKLEAITDEENDMLDLAYGLTDRSRLGCQICLTKAMDNMTVRVPDAVSDARESIDMGMNSSKIE, the denaturant m value came out at 2.19 kcal/mol/M, the “denaturant midpoint” value worked out at 1.5 M, the unfolding free energy turned out to be 3.28 kcal/mol and the midpoint of thermal melting (Tm) worked out at 45.4 °C. Further, the “change of melting temperature, mutant” value is -6.5 °C.
Take MAARLLRVASAALGDTAGRWRLLARPRAGAGGLRGSRGPGLGGGAVATRTLSVSGRAQSSSEDKITVHFINRDGETLTTKGKIGDSLLDVVVQNNLDIDGFGACEGTLACSTCHLIFEQHIFEKLEAITDEENDMLDLAWGLTDRSRLGCQICLTKAMDNMTVRVPDAVSDARESIDMGMNSSKIE: the Tm came out at 51.2 °C and the “change of melting temperature, mutant” value was -0.7 °C.
Take MAARLLRVASAALGDTAGRWRLLARPRAGAGGLRGSRGPGLGGGAVATRTLSVSGRAQSSSEDKITVHFINRDGETLTTKGKIGDSLLDVVVQNNLDIDGFGACEGTLACSTCHLIFEQHIWEKLEAITDEENDMLDLAYGLTDRSRLGCQICLTKAMDNMTVRVPDAVSDARESIDMGMNSSKIE: the denaturant m value is 2.28 kcal/mol/M, the “denaturant midpoint” value was 1.82 M, the unfolding free energy is 4.17 kcal/mol and the midpoint of thermal melting (Tm) is 48.7 °C. Besides, the “change of melting temperature, mutant” value is -3.2 °C.
